# Reference: paper PMC11574021, “CEP192 localises mitotic Aurora-A activity by priming its interaction with TPX2” (The EMBO Journal, 2024)
# B1: human CEP192 442–533 (domain or fragment, UniProt Q8TEP8 442-533, looked up)
# chain: IWSPTCERRTCECHESIEKNKDKTDLPQSVVYQNEEGRWVTDLAYYTSFNSKQNLNVSLSDEMNEDFRSGSEAFDLIAQDEEEFNKEHQFIQ
# notes: Codon-optimised template from GenScript (CEP192 1-1000); source: E. coli B834 RIL, purified (HisTrap, TEV cleavage, SEC); 15N- or 15N/13C-labelled in Rosetta E. coli for NMR; not shown: His6, N-terminal, cleaved; SUMO, N-terminal, cleaved
# B2: human CEP192 468–533 L484D (domain or fragment, UniProt Q8TEP8 468-533, looked up)
# chain: PQSVVYQNEEGRWVTDDAYYTSFNSKQNLNVSLSDEMNEDFRSGSEAFDLIAQDEEEFNKEHQFIQ
# notes: source: E. coli B834 RIL, purified (HisTrap, TEV cleavage, SEC); not shown: His6, N-terminal, cleaved; SUMO, N-terminal, cleaved
# Experiments:
# [1] = molecular target: Aurora-A; conditions: from fluorescence polarisation; ref (Burgess et al, [2015]; McIntyre et al, [2017]; Zorba et al, [2014]); cited from earlier work
# Description: This is a higher affinity than observed in a previous study that used CEP192 proteins fused to MBP, a large protein tag that might have affected the interaction (Park et al, [2023]). For context, the affinity of Aurora-A for its other key mitotic partners are: TPX2_1-43 (Kd 0.3–2 μM from ITC) and TACC ...
# [2] = molecular target: FAM-CEP192 501–533 (human) (UniProt Q8TEP8); test: fluorescence polarisation; direct fluorescence anisotropy: Aurora-A diluted across the plate, 50 nM tracer FAM-CEP192 501–533; 25 mM HEPES pH 7.5, 150 mM NaCl, 2 mM DTT, 5 mM MgCl2, 0.01% Tween 20; 1 h at room temperature
# [3] = test system: PPP1CA-pT320, PRC1-pT481 and Histone-H3-pS10 in U251 cells; test: Western blot, mitotic phosphorylations (PPP1CA-pT320, PRC1-pT481, Histone-H3-pS10), asynchronous U251; format: cell-based, Homo sapiens; conditions: asynchronous U251, siRNA 48 h
# Description: Cells were lysed on ice for 30 min in lysis buffer (50 mM tris pH 8.0, 300 mM NaCl, 0.2%(v/v) NP-40, 10%(v/v) glycerol, protease inhibitor cocktail C, phosphatase inhibitor cocktail 3 (Sigma, 1:200 dilution), 100 nM okadaic acid (Enzo, ALX-350-003-C100)). Lysates were then centrifuged at 14,000 × g, 15 min, 4 °C, the supernatants were transferred to a fresh tube, and the pellet was discarded. Protein concentrations were measured by Bradford assay using Protein Assay Dye Reagent Concentrate (Bio-Rad Laboratories, 5000006). NuPage LDS sample buffer, supplemented with NuPAGE sample reducing agent (Invitrogen) were added prior to boiling for 10 min at 90 °C. Equal amounts of protein, between 8–20 µg/lane, were loaded into pre-cast 4–12% Bis-Tris gels (Invitrogen, NP0322BOX) and proteins separated in 1x MOPS buffer (Invitrogen) and transferred to nitrocellulose membrane (0.45 µM). Nitrocellulose was then blocked in 5% milk (wt/v) in TBS, 0.1% Tween (v/v) (TBST) for 1 h. Primary and secondary antibodies were diluted in 5% milk, TBST and incubated overnight at 4 °C or for 1 h at room temperature, respectively. Species-specific secondary antibodies conjugated to horseradish peroxidase (HRP) were used (anti-Mouse, Cytiva NA931V; anti-Rabbit, Cytiva NA934; anti-Sheep, Jackson 713-035-003). Membranes were washed for 1 h in TBST, changing the buffer five times, after each antibody incubation.
# siRNA depletion was carried out by reverse transfection using oligofectamine (Thermo Scientific, 12252011) and lipofectamine RNAiMax (Thermo Scientific, 13778075), according to the manufacturer’s instructions, for U251 and RPE1 cells, respectively. For immunofluorescence, 1 × 10^5 cells were seeded in six-well plates and simultaneously transfected with 60 pmol siRNA duplex and 3 µl transfection reagent diluted in 200 µl Opti-MEM serum-free medium. Growth medium was added to a final volume of 2 ml. For western blotting, 1 × 10^6 cells were seeded in 10 cm dishes and transfected with 300 pmol siRNA duplex and 15 µl transfection reagent diluted in 1000 µl Opti-MEM. […]
# [4] = test system: Aurora-A-pT288 in U251 cells; test: Western blot densitometry of Aurora-A-pT288, mitotic U251 cells; format: cell-based, Homo sapiens; conditions: mitotic U251 (and RPE1) lysates, siRNA 48 h, in words
# Description: For western blotting analysis of mitotic lysates, cells were synchronised in mitosis with 10 µM S-Trityl-L-cysteine (STLC, Bio-Techne, 2191-50), an Eg5 inhibitor, for 20 h prior to collecting by mitotic shake-off. For measuring monopolar spindle diameter and counting centriolar foci by immunofluorescence, cells were treated with 10 µM STLC for 1 h and 4 h prior to fixation, respectively.
# As noted in the figures, the following drugs were incubated with cells for 30 min at 37 °C: Aurora-B-i ZM447439 2 µM [10 mM], PLK1-I BI2536 1 µM [10 mM] and Aurora-A-i MLN8237 [5 mM] was used at 250 and 500 nM in U251 and RPE1 cells, respectively. Drugs were resuspended in DMSO to the stock concentrations indicated in square brackets. BI2536 (HY-50698), MLN8237 (HY-10971) and ZM447439 (HY-10128) were all purchased from MedChemExpress. For western blotting, a 20-min pre-treatment with proteasome inhibitor (20 µM MG-132, MerckMillipore, 47490 [20 mM]) was required prior to the addition of DMSO control or kinase inhibitors. This prevented mitotic exit as a consequence of checkpoint override following Aurora-A and Aurora-B inhibitor addition.
# Cells were lysed on ice for 30 min in lysis buffer (50 mM tris pH 8.0, 300 mM NaCl, 0.2%(v/v) NP-40, 10%(v/v) glycerol, protease inhibitor cocktail C, phosphatase inhibitor cocktail 3 (Sigma, 1:200 dilution), 100 nM okadaic acid (Enzo, ALX-350-003-C100)). Lysates were then centrifuged at 14,000 × g, 15 min, 4 °C, the supernatants were transferred to a fresh tube, and the pellet was discarded. Protein concentrations were measured by Bradford assay using Protein Assay Dye Reagent Concentrate (Bio-Rad Laboratories, 5000006). NuPage LDS sample buffer, supplemented with NuPAGE sample reducing agent (Invitrogen) were added prior to boiling for 10 min at 90 °C. […]
# Densitometric quantification of western blots was also performed in ImageJ. Intensity was measured in a rectangular region of interest (ROI) around each band. […] An adjacent region was also measured to account for background intensity.
# [5] = molecular target: T1, Aurora-A^M3KD (Aurora-A 122–403 C290A C393A D274N) (human, UniProt O14965 122-403, D274N | C290A | C393A); test: ITC; CEP192 442–533 titrated into Aurora-A kinase domain (by the legend); 25 °C; 20 mM tris pH 7.5, 200 mM NaCl, 10% glycerol, 5 mM MgCl2; two repeats; conditions: both partners purified
# T1 construct: Aurora-A kinase domain, human, residues 122-403; also called Aurora-A kinase domain (122–403 C290A C393A D274N); source: E. coli, purified (HisTrap, TEV cleavage, SEC); not shown: His6, N-terminal, cleaved
# T1 sequence (looked up): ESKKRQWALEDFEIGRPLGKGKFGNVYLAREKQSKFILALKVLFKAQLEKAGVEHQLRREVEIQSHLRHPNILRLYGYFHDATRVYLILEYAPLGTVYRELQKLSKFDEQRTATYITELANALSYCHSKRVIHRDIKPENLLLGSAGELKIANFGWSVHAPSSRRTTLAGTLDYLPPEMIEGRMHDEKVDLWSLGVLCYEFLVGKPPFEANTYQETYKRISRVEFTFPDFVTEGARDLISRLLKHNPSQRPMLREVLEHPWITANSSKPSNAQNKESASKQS
# [6] = molecular target: T2, Aurora-A^CAKD (Aurora-A kinase domain, aa 122–403 C290A, C393A), unphosphorylated (human, UniProt O14965 122-403, C290A | C393A); test: fluorescence polarisation; competition: 25 μM Aurora-A kinase domain preincubated with 100 nM FAM-TACC3 522-536, CEP192 competitor serially diluted; 25 mM HEPES pH 7.5, 150 mM NaCl, 2 mM DTT, 5 mM MgCl2, 0.01% Tween 20; conditions: both partners purified
# T2 construct: Aurora-A kinase domain, human, residues 122-403, variant lacking surface cysteines; also called Aurora-A 122–403 C290A C393A; unphosphorylated Aurora-A^CAKD; source: E. coli RIL, co-expressed with lambda phosphatase, purified (HisTrap, TEV cleavage, SEC); not shown: His6, N-terminal, cleaved
# T2 sequence (looked up): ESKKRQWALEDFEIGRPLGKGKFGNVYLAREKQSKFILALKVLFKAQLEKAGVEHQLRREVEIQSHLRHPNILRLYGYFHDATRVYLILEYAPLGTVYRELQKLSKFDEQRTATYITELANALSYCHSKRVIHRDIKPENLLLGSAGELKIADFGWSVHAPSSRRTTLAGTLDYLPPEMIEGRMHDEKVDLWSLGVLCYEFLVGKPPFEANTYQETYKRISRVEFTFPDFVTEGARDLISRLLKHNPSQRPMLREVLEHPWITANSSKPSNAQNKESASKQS
# [7] = molecular target: T3, unphosphorylated Aurora-A CAKD (Homo sapiens, UniProt O14965, C290A/C393A); test: Fluorescence anisotropy competition with FAM-TPX2 7-43; format: binding; conditions: competition with 100 nM FAM-TPX2 7-43, 10 μM unphosphorylated Aurora-A CAKD, n = 3 (Appendix Fig. S4E)
# T3 construct: 10 μM Aurora-A kinase domain (phosphorylated or unphosphorylated C290A C393A 122–403); His (N, cleaved yes); made in house; host or cells: E. coli RIL, co-expressed with lambda phosphatase
# T3 sequence (O14965 122-403 C290A/C393A): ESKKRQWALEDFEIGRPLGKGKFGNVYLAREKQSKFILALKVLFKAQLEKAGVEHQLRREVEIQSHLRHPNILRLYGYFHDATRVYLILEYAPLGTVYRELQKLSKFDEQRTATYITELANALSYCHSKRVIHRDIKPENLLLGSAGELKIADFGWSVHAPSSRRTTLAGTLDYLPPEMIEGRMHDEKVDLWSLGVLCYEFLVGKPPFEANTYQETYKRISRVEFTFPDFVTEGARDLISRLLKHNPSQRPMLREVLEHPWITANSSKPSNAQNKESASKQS
# Description: Assays were performed in 25 mM HEPES pH 7.5, 150 mM NaCl, 2 mM DTT, 5 mM MgCl2, 0.01% Tween 20. For CEP192 and TPX2 competition assays 10 μM Aurora-A kinase domain (phosphorylated or unphosphorylated C290A C393A 122–403) was preincubated on ice with 100 nM FAM-TPX2 7-43 or 100 nM FAM-CEP192 501–533. For TACC3 competition, due to weaker binding, 25 μM Aurora-A kinase domain (phosphorylated or unphosphorylated C290A C393A 122–403) was preincubated with 100 nM FAM-TACC3 522-536. Serial dilutions of competitor (CEP192) were performed in triplicate into a low volume 384-well black plate, before the premixed Aurora-A and tracer were added. A control row included no tracer. Plates were left incubating for 1 h at room temperature before the fluorescence anisotropy was measured using a HIDEX plate reader, with excitation at 485 nm and emission at 535 nm. For direct binding experiments, the assay was performed as above, but the Aurora-A (122–403 C290A C393A or point mutants) was diluted across the plate from high to low concentration, before the addition of 50 nM tracer (FAM-CEP192 501–533) to three replicate rows. Buffer only was added to the control row.
# Fluorescence anisotropy data were processed using Microsoft Excel to calculate intensity and anisotropy using the equation listed in (Yeo et al, [2013]). The IC50 and Kd values were calculated using Origin (OriginLab) where the data fitted to a sigmoid and are summarised in Appendix Table S3.
# [8] = molecular target: T2, Aurora-A^CAKD (Aurora-A kinase domain, …); test: fluorescence polarisation; competition: 10 μM unphosphorylated Aurora-A^CAKD preincubated with 100 nM FAM-TPX2 7-43, CEP192 competitor serially diluted; 25 mM HEPES pH 7.5, 150 mM NaCl, 2 mM DTT, 5 mM MgCl2, 0.01% Tween 20; conditions: both partners purified
# [9] = molecular target: T4, phosphorylated Aurora-A^CAKD (Aurora-A 122–403 C290A C393A, not co-expressed with lambda phosphatase) (human, UniProt O14965 122-403, C290A | C393A, phosphorylated (sites of this preparation not printed in the text shown)); test: cell-based or functional assay
# T4 sequence (looked up): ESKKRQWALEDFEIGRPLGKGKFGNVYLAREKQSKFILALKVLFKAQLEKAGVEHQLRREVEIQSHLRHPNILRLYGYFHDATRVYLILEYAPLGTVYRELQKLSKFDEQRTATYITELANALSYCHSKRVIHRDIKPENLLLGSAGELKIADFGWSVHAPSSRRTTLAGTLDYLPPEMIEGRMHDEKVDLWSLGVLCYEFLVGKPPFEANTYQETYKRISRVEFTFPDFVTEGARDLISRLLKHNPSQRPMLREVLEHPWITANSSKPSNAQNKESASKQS
molecule,measurement,setting,value
"TACC3 519-563: TACC3 fragment, literature affinity (ELKEESFRDPAEVLGTGAEVDYLEQFGTSSFKESALRKQSLYLKF; UniProt Q9Y6A5 519-563, looked up, fragment)",Kd,[1],~6 µM
Aurora-A^KD R151A (Aurora-A 122–403 R151A) (from UniProt O14965 122-403) (domain or fragment),Kd,[2],> 10 µM
5′-GGAUAUGGUUGAUCCUAUAtt-3′ [siBora],"mitotic phosphorylations (PPP1CA-pT320, PRC1-pT481, Histone-H3-pS10)",[3],increased levels of mitotic phosphorylations
same,activation loop phosphorylation (pT288) of Aurora-A in mitotic cell lysates,[4],no discernible effect
Aurora-A^KD F165D (Aurora-A 122–403 F165D) (from UniProt O14965 122-403) (domain or fragment),Kd,[2],> 5 µM
Aurora-A^KD R205A (Aurora-A 122–403 R205A) (from UniProt O14965 122-403) (domain or fragment),Kd,[2],> 5 µM
B1,Kd,[5],0.072 µM
same,stoichiometry N,[5],0.67
same,IC50,[6],5.7 µM
same,IC50,[7],3.33 µM
same,IC50,[8],4.2 µM
same,"ADP-Glo, 10 nM phosphorylated Aurora-A^CAKD with kemptide: IC50 of partial inhibition of kinase activity",[9],0.032 µM
B2,IC50,[8],19.9 µM
same,"ADP-Glo, 10 nM phosphorylated Aurora-A^CAKD with kemptide: IC50 of inhibition of kinase activity",[9],0.22 µM
